According to PMC6445466 (2019):

B1: BAD16-C (residues 204-352, B. afzelii strain PGau) (domain or fragment)
chain: SNRYESYLEGVKYNVSSAIKTIVKIYDNYTLLSTKQTQMYSTRLDNLAKAKAREEAKKFTKEELEKDLKTLLNYIQVSARTATNFVYAREIYSKRKLDAIETEIKNLVLKIKGQSDLYEAYKAIVRSILLMKDSLKIIEIVIDKNGVWY

Tests used:
[1] = biological target: B1; experiment: SPR
[2] = biological target: human C1 complex (human, UniProt P02745 23-245; P02746 28-253; P02747 29-245); experiment: SPR

| Binder | Kd [1] | Kd [2] |
| --- | --- | --- |
| human C1r, full-length enzyme (enzyme) SIPIPQKLFGEVTSPLFPKPYPNNFETTTVITVPTGYRVKLVFQQFDLEPSEGCFYDYVKISADKKSLGRFCGQLGSPLGNPPGKKEFMSQGNKMLLTFHTDFSNEENGTIMFYKGFLAYYQAVDLDECASRSKSGEEDPQPQCQHLCHNYVGGYFCSCRPGYELQEDTHSCQAECSSELYTEASGYISSLEYPRSYPPDLRCNYSIRVERGLTLHLKFLEPFDIDDHQQVHCPYDQLQIYANGKNIGEFCGKQRPPDLDTSSNAVDLLFFTDESGDSRGWKLRYTTEIIKCPQPKTLDEFTIIQNLQPQYQFRDYFIATCKQGYQLIEGNQVLHSFTAVCQDDGTWHRAMPRCKIKDCGQPRNLPNGDFRYTTTMGVNTYKARIQYYCHEPYYKMQTRAGSRESEQGVYTCTAQGIWKNEQKGEKIPRCLPVCGKPVNPVEQRQRIIGGQKAKMGNFPWQVFTNIHGRGGGALLGDRWILTAAHTLYPKEHEAQSNASLDVFLGHTNVEELMKLGNHPIRRVSVHPDYRQDESYNFEGDIALLELENSVTLGPNLLPICLPDNDTFYDLGLMGYVSGFGVMEEKIAHDLRFVRLPVANPQACENWLRGKNRMDVFSQNMFCAGHPSLKQDACQGDSGGVFAVRDPNTDRWVATGIVSWGIGCSRGYGFYTKVLNYVDWIKKEMEEED | 2.2 nM | – |
| B1 | – | 5.4 nM |
| BBK32-C (residues 206-354, B. burgdorferi strain B31) (domain or fragment) SNRYQSYLEGVKYNVDSAIQTITKIYNTYTLFSTKLTQMYSTRLDNFAKAKAKEEAAKFTKEDLEKNFKTLLNYIQVSVKTAANFVYINDTHAKRKLENIEAEIKTLIAKIKEQSNLYEAYKAIVTSILLMRDSLKEVQGIIDKNGVWY | – | 6 nM |
